Assay results from PMC11790970.
Values belong to the molecule of their own block, whether it stands above or below them.

Columns and labels:
[1] = target: Asp85 (UniProt position 98, WARYADWLFTT); conditions: cited from earlier work
[2] = target: actinorhodopsin from Rhodoluna lacicola strain MWH-Ta8 (Rhodoluna lacicola strain MWH-Ta8); assay: cryo-EM structure; single particle analysis, 2D classification, 4 Å projection structure from 53,376 particles; protein purified in 0.25% (w/v) Cymal-5, 2.5 mg/mL
[3] = target: actinorhodopsin from Rhodoluna lacicola strain MWH-Ta8 (Rhodoluna lacicola strain MWH-Ta8); assay: SEC; Superdex 200 Increase 10/300 GL; 20 mM BTP-HCl pH 7.5, 150 mM NaCl, 0.25% (w/v) Cymal-5; sample at about 0.75-1.5 mg/mL; column calibrated with molecular weight markers
[4] = tested on: Asp97; conditions: cited from earlier work
[5] = target: Asp92 (position 92, …); assay: UV-vis; conditions: not stated (pH adjusted at room temperature), 150 mM NaCl plus 100 mM acetate buffer, with residual HEPES-NaOH from a 5 mM stock diluted 5-fold, Detergent-solubilised, retinal-bound oligomeric RlActR at 0.2 mg/mL, whether the sample was light- or dark-adapted is not stated

Molecule: Bacteriorhodopsin (BR) (Halobacterium salinarum)
pKa [1]: ∼2.6

stoichiometry N [2]: 5
stoichiometry N [3]: 5
Molecule: actinorhodopsin from Rhodoluna lacicola strain MWH-Ta8 (natural protein)

Molecule: Green-light absorbing proteorhodopsin (GPR) (uncultured marine gamma-proteobacterium)
pKa [4]: ∼7.5

B1: Actinorhodopsin RlActR (Rhodoluna lacicola (strain MWH-Ta8)) (protein)
chain: MNTLSNALDNGQFNLVYNILSLGIASMLFTAIFLFVARERVLPRYRIAVMVSATVTAIAAYHYFRMFDNFSHAFAGAENNPDAYNVGYRYVDWLLTVPLLLVELVAVLALAKAAQSSILNRLVPAAAAMIVLGYPGDAKLDIWGIAPSVWGLLSTIPFLYILYVLFIELGKSLSRQSEAVQKKVKILRLLLIATWGVYPITFILAMGTPPGAPFNASEFVAREVGYSIADILAKCLFGLIIYSIARIKSAEDDKEFAKAEFKDALEGHHHHH
pKa [5]: 5.6
